Test results published in the supplement of paper PMC9876800.

Tested on: peptide library, one residue held at a place counted from the S/T acceptor
Test: relative phosphorylation of the sub-library (ratio to the mean residue at this position); higher = residue favoured
Outline: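 Human or orthologue kinase constructs, purified and recombinant, were incubated under kinase-specific conditions in 384-well plates with biotinylated degenerate peptide sub-libraries. Each sub-library fixed one residue at one position around a central Ser/Thr. Incubations lasted 90 min with peptides at 50 μM and 50 μM ATP spiked with γ-32P-ATP, after which spots on streptavidin membranes were phosphorimaged and quantified by densitometry. Relative sub-library phosphorylation is a ratio to the mean residue at that position.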

Chain of CDK7, construct: Full length, human (P50613 whole entry, looked up): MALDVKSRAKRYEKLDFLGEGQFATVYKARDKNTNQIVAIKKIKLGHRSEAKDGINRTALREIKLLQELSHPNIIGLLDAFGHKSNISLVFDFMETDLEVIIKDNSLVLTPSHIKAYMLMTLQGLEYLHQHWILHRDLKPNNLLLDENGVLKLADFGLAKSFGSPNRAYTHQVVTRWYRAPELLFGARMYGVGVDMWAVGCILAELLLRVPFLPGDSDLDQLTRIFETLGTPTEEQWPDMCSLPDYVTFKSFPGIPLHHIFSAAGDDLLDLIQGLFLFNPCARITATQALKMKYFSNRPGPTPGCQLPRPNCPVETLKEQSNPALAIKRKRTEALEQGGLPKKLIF
Chain of RPS6KB1, construct: aa1-421, human (P23443 1-421, looked up): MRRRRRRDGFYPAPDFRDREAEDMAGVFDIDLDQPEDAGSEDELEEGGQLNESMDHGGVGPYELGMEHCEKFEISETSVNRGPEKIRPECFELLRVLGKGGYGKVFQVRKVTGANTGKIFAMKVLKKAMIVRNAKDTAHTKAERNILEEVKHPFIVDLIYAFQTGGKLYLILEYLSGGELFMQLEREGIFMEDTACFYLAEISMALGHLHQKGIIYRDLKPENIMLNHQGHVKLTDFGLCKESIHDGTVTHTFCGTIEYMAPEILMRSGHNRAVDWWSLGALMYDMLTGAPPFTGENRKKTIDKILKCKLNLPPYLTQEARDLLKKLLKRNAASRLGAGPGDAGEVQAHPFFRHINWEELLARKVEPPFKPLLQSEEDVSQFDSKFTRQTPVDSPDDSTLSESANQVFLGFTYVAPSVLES
Chain of STK32B, construct: Full length, human (Q9NY57 whole entry, looked up): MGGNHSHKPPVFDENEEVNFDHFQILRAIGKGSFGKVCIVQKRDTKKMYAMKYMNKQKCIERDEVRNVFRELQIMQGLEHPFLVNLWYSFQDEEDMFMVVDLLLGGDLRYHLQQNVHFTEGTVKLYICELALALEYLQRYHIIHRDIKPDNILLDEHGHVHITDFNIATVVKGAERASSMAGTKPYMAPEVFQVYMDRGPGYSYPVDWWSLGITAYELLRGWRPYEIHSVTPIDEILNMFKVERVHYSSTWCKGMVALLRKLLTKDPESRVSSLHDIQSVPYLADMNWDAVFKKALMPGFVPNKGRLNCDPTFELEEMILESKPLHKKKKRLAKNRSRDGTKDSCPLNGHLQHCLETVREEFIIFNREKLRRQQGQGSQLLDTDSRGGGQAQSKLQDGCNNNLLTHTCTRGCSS
Chain of EIF2AK3, construct: aa536-1116, human (Q9NZJ5 536-1116, looked up): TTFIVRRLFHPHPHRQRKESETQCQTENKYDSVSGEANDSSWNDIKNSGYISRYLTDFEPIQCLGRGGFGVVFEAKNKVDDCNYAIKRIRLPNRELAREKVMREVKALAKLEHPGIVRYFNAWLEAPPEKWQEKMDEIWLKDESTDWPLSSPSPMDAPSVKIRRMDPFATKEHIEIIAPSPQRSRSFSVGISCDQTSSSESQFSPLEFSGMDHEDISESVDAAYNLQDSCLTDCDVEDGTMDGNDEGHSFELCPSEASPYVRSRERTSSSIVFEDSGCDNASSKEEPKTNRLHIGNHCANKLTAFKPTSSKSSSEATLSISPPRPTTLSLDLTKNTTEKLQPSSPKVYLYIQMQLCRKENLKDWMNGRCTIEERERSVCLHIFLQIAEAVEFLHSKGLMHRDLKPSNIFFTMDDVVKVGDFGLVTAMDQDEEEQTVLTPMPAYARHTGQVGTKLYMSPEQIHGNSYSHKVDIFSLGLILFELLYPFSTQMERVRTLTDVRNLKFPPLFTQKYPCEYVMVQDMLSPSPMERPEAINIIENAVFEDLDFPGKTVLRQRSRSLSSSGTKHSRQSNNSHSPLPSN

STK32B, construct: Full length, human (from UniProt Q9NY57)
relative phosphorylation
Details | at +1 | at +2 | at +3 | at +4 | at -1 | at -2 | at -3 | at -4 | at -5
A fixed | 0.577 | 0.493 | 0.744 | 0.79 | 0.938 | 0.933 | 0.994 | 1.1 | 1.08
D fixed | 0.363 | 0.882 | 0.608 | 0.539 | 0.556 | 0.56 | 1.54 | 1.15 | 1.08
E fixed | 0.932 | 1.81 | 0.743 | 0.769 | 0.726 | 0.921 | 1.35 | 1.59 | 0.878
F fixed | 2.31 | 0.995 | 1.37 | 0.745 | 0.832 | 1.35 | 0.754 | 0.804 | 0.938
G fixed | 0.389 | 0.269 | 0.43 | 0.849 | 1.26 | 0.739 | 0.909 | 1.24 | 1.19
H fixed | 0.784 | 1.61 | 1.11 | 1.16 | 0.992 | 1.22 | 0.871 | 0.975 | 1.14
I fixed | 1.91 | 0.897 | 1.47 | 1.04 | 0.557 | 0.77 | 0.702 | 0.66 | 0.798
K fixed | 0.75 | 0.796 | 1.1 | 1.84 | 1.32 | 0.656 | 1.05 | 1.1 | 1.35
L fixed | 1.1 | 0.767 | 1.29 | 0.812 | 0.884 | 1.7 | 0.77 | 0.744 | 0.78
M fixed | 2.15 | 0.934 | 1.17 | 0.898 | 1.15 | 1.2 | 0.776 | 0.906 | 0.797
N fixed | 0.545 | 0.704 | 0.659 | 0.828 | 0.878 | 1.02 | 0.941 | 0.983 | 1.03
P fixed | 0.259 | 0.214 | 0.356 | 1.13 | 1.46 | 1.23 | 1.03 | 1.1 | 0.987
Q fixed | 1.01 | 0.86 | 0.826 | 0.864 | 1.03 | 0.88 | 0.753 | 0.88 | 0.88
R fixed | 0.939 | 1.01 | 1.05 | 1.87 | 2.02 | 1.02 | 2.17 | 1.32 | 1.39
V fixed | 1.26 | 0.765 | 1.4 | 0.742 | 0.593 | 0.797 | 0.821 | 0.764 | 0.736
W fixed | 0.713 | 1.39 | 1.41 | 1.14 | 0.634 | 0.755 | 0.65 | 0.784 | 0.844
Y fixed | 1 | 2.61 | 1.24 | 0.989 | 1.16 | 1.25 | 0.915 | 0.903 | 1.11
pThr fixed | 1.12 | 2.27 | 3.42 | 1.86 | 1.03 | 1.74 | 9.83 | 2.88 | 1.67
pTyr fixed | 2.4 | 63.9 | 6.44 | 10.7 | 1.72 | 7.31 | 2.44 | 1.38 | 1.77

CDK7, construct: Full length, human (from UniProt P50613)
relative phosphorylation
Details | at +1 | at +2 | at +3 | at +4 | at -1 | at -2 | at -3 | at -4 | at -5
A fixed | 0.369 | 1.2 | 1.11 | 0.982 | 0.638 | 1.14 | 1.06 | 1.05 | 1.12
D fixed | 0.303 | 0.747 | 0.502 | 0.558 | 0.367 | 0.385 | 0.671 | 0.621 | 0.658
E fixed | 0.274 | 0.589 | 0.433 | 0.506 | 0.276 | 0.408 | 0.598 | 0.586 | 0.518
F fixed | 0.271 | 0.709 | 1.05 | 1 | 0.977 | 0.484 | 0.676 | 0.812 | 1.01
G fixed | 0.981 | 1.34 | 1.04 | 1.22 | 0.999 | 0.965 | 1.44 | 1.24 | 1.12
H fixed | 0.317 | 1.06 | 1.02 | 1.24 | 0.9 | 0.586 | 0.936 | 1.16 | 1.36
I fixed | 0.339 | 0.81 | 0.854 | 0.956 | 0.385 | 1.28 | 0.647 | 0.734 | 0.728
K fixed | 0.288 | 1.13 | 0.904 | 0.814 | 1.27 | 0.802 | 1.26 | 1.25 | 1.3
L fixed | 0.33 | 0.774 | 1.05 | 0.932 | 1.04 | 1.18 | 0.608 | 0.81 | 0.863
M fixed | 0.333 | 0.871 | 1.02 | 1.04 | 1.09 | 0.978 | 0.793 | 0.975 | 0.878
N fixed | 0.449 | 1.13 | 0.826 | 0.937 | 0.602 | 0.818 | 0.949 | 1.11 | 0.986
P fixed | 11.1 | 1.57 | 1.34 | 1.18 | 1.02 | 3.51 | 2 | 1.37 | 1.07
Q fixed | 0.354 | 1.04 | 0.831 | 1.07 | 0.919 | 0.781 | 1.06 | 1.03 | 0.845
R fixed | 0.294 | 1.36 | 0.624 | 0.727 | 1.56 | 1.14 | 1.87 | 1.31 | 1.22
V fixed | 0.417 | 0.9 | 1.04 | 0.878 | 0.62 | 1.3 | 0.842 | 0.681 | 0.693
W fixed | 0.304 | 0.802 | 1.32 | 1.47 | 3.04 | 0.639 | 0.774 | 1.16 | 1.49
Y fixed | 0.283 | 0.982 | 2.04 | 1.48 | 1.29 | 0.605 | 0.825 | 1.1 | 1.14
pThr fixed | 0.469 | 0.566 | 0.573 | 0.503 | 0.352 | 0.645 | 0.713 | 0.697 | 0.612
pTyr fixed | 0.357 | 0.583 | 0.641 | 0.713 | 0.475 | 0.37 | 0.568 | 0.63 | 0.522

EIF2AK3, construct: aa536-1116, human (from UniProt Q9NZJ5)
relative phosphorylation
Details | at +1 | at +2 | at +3 | at +4 | at -1 | at -2 | at -3 | at -4 | at -5
A fixed | 0.888 | 1.08 | 0.836 | 0.863 | 0.745 | 0.615 | 1.02 | 1.02 | 1.07
D fixed | 0.348 | 0.419 | 0.491 | 0.684 | 0.71 | 3.5 | 1.61 | 1.18 | 1
E fixed | 0.676 | 0.277 | 0.555 | 0.678 | 0.62 | 3 | 1.23 | 0.94 | 0.712
F fixed | 1.08 | 0.921 | 1.09 | 0.92 | 1.21 | 1.22 | 1.04 | 1.05 | 1.32
G fixed | 1.02 | 1.14 | 1.89 | 1.14 | 0.458 | 0.748 | 0.825 | 1.05 | 0.984
H fixed | 0.898 | 1.28 | 1.31 | 1.12 | 1.21 | 0.712 | 0.911 | 1.08 | 1.17
I fixed | 1.05 | 0.748 | 0.703 | 0.838 | 1.2 | 0.527 | 0.819 | 0.774 | 0.837
K fixed | 1.12 | 1.06 | 1.09 | 1.28 | 1.19 | 0.472 | 0.798 | 0.942 | 0.996
L fixed | 0.907 | 0.609 | 0.8 | 0.822 | 1.11 | 0.877 | 1.06 | 0.79 | 1.01
M fixed | 1.6 | 0.823 | 0.814 | 0.871 | 1.22 | 0.942 | 1.06 | 0.956 | 0.9
N fixed | 0.86 | 1.12 | 0.821 | 0.95 | 0.879 | 0.698 | 0.856 | 0.788 | 0.788
P fixed | 0.245 | 0.662 | 1.48 | 1.24 | 0.582 | 0.429 | 0.749 | 0.871 | 0.837
Q fixed | 1.43 | 0.719 | 0.778 | 0.865 | 0.837 | 0.615 | 0.767 | 0.751 | 0.713
R fixed | 2.11 | 2.2 | 1.43 | 1.53 | 1.34 | 0.576 | 0.934 | 1.1 | 1.06
V fixed | 0.92 | 0.709 | 0.664 | 0.78 | 1.25 | 0.544 | 0.839 | 0.825 | 0.769
W fixed | 0.809 | 1.44 | 1.25 | 1.3 | 1.07 | 0.892 | 1.42 | 1.66 | 1.49
Y fixed | 1.04 | 1.79 | 0.999 | 1.12 | 1.36 | 0.629 | 1.06 | 1.22 | 1.34
pThr fixed | 0.47 | 0.307 | 0.402 | 0.715 | 0.478 | 1.31 | 1.05 | 0.722 | 0.848
pTyr fixed | 0.828 | 0.387 | 0.715 | 0.796 | 0.726 | 0.527 | 1.05 | 0.682 | 0.847

RPS6KB1, construct: aa1-421, human (from UniProt P23443)
relative phosphorylation
Details | at +1 | at +2 | at +3 | at +4 | at -1 | at -2 | at -3 | at -4 | at -5
A fixed | 0.718 | 0.952 | 0.865 | 0.956 | 0.716 | 0.67 | 0.516 | 0.839 | 0.539
D fixed | 0.458 | 0.433 | 0.664 | 0.933 | 0.802 | 0.231 | 0.188 | 0.433 | 0.362
E fixed | 0.849 | 0.268 | 0.694 | 0.703 | 0.577 | 0.25 | 0.194 | 0.694 | 0.323
F fixed | 2.01 | 0.855 | 1.22 | 0.909 | 0.878 | 0.823 | 0.421 | 0.73 | 0.721
G fixed | 0.804 | 1.68 | 1.13 | 1.18 | 0.562 | 0.48 | 0.318 | 0.724 | 0.608
H fixed | 1.19 | 1.65 | 1.45 | 1.38 | 1.28 | 1.14 | 0.949 | 1.11 | 1.21
I fixed | 1.07 | 0.942 | 0.914 | 0.909 | 0.768 | 0.741 | 0.37 | 0.708 | 0.593
K fixed | 0.932 | 0.794 | 0.982 | 0.943 | 1.35 | 2.56 | 1.45 | 2.08 | 1.92
L fixed | 1.18 | 0.933 | 0.976 | 0.868 | 1.12 | 1.24 | 0.426 | 0.802 | 0.714
M fixed | 1.39 | 1 | 0.794 | 0.863 | 1.19 | 0.87 | 0.452 | 0.947 | 0.529
N fixed | 0.746 | 1.41 | 0.87 | 1.07 | 1.31 | 0.763 | 0.41 | 0.904 | 0.66
P fixed | 0.328 | 0.816 | 0.955 | 1.26 | 1.2 | 0.289 | 0.297 | 0.794 | 0.645
Q fixed | 0.717 | 0.707 | 1 | 0.966 | 0.957 | 0.841 | 0.541 | 1.05 | 0.934
R fixed | 0.944 | 1.61 | 1.08 | 0.784 | 1.3 | 3.7 | 8.82 | 2.34 | 5.28
V fixed | 1.19 | 1.06 | 0.772 | 0.926 | 1.01 | 0.596 | 0.362 | 1.01 | 0.562
W fixed | 1.42 | 0.935 | 1.43 | 1.26 | 0.8 | 0.751 | 0.658 | 0.989 | 0.738
Y fixed | 1.05 | 0.955 | 1.21 | 1.09 | 1.17 | 1.05 | 0.624 | 0.849 | 0.661
pThr fixed | 0.905 | 0.467 | 0.716 | 1.36 | 0.384 | 0.275 | 0.231 | 0.55 | 0.429
pTyr fixed | 1.39 | 0.696 | 0.954 | 1.14 | 1.77 | 0.451 | 0.348 | 0.598 | 0.579
